In the DeepSol protein solubility set:

Experiment: soluble on expression in E. coli; label from the status in PepcDB or PDB records

| Sequence | soluble on expression in E. coli |
| --- | --- |
| GIRSLDGQEDEFDANEQEEIEAKRECALRGRVSVAITPAQSREHGQGDQHGGDRSTHTDDPQAGPWHSAAPAQLSDSIRTCIDAIVDRYVTRRDADPVAKRHALAAALVELRAVGVSHPAVAPLTATIWRLMREHLRAYDKATAAENLLALRTRLLELMPSELEPVPALRNFHLLLPLILLNAEKPRRRVDRTHAITRLNTLLIEQPQQAAQEVRP | not soluble |
| GIVPYGGNLTVLDLVQKYIGQKKGVRHNTQANYDFVINIIKKEEFGTRRIDKIKLSDAKAWFIKLQADGRGYSSIHSVRGIVRPAFQMAVEDDLLRKNPFEFQLCTVVVNDSVTRQAITKEQEELFLEFIRNDDHYSKYYNGMFILFKTGLRISEFCGLTVKDIDLQERKINVNHQLQRTRGMQYVIEDTKTSSGTRMLPMTDEVYECFEQIVKNRKKVRVEPIVDGYSRFLFLDKKDMPEVALHWEKHFQWALGKYNRTHEEQMPKITPHVCRHTYCSNMAKAGMNPKALQYLMGHSDIGVTLNVYTHLGLIDAKEEMNRIAKLA | not soluble |
| GKPSWLGGGSTQPAQTIPWGIERVKAPSVWSITDGSVSVIQVAVLDTGVDYDHPDLAANIAWCVSTLRGKVSTKLRDCADQNGHGTHVIGTIAALNNDIGVVGVAPGVQIYSVRVLDARGSGSYSDIAIGIEQAILGPDGVADKDGDGIIAGDPDDDAAEVISMSLGGPADDSYLYDMIIQAYNAGIVIVAASGNEGAPSPSYPAAYPEVIAVGAIDSNDNIASFSNRQPEVSAPGVDILSTYPDDSYETLMGTAMATPHVSGVVALIQAAYYQKYGKILPVGTFDDISKNTVRGILHITADDLGPTGWDADYGYGVVRAALAVQAALG | soluble |
| GKVAKPVLLHQSSTEVSSTNQVEVPDTTQSSPVSISSGLNSDPDMVDSPVVTGVSGMAVASVMGSLSQSATVFMSEVTNEAVYTMSPTAGPNHHLLSPDASQGLVLAVSSDGHKFAFPTTGSSESLSMLPTNVSEELVLSTTLDGGRKIPETTMNFDPDCFLNNPKQGQTYGGGGLKAEMVSSNIRHSPPGERSFSFTTVLTKEIKTEDTSFEQQMAKEAYSSSAAAVAASSLTLTAGSSLLPSGGGLSPSTTLEQMDFSAIDSNKDYTSSFSQTGHSPHIHQTPSPSFFLQDASKPLPVEQNTHSSLSDSGGTFVMPTVKTEASSQTSSCSGHVETRIESTSSLHLMQFQANFQAMTAEGEVTMETSQAAEGSEVLLKSGELQACSSEHYLQPETNGVIRSAGGVPILPGNVVQGLYPVAQPSLGNASNMELSLDHFDISFSNQFSDLINDFISVEGGSSTIYGHQLVSGDSTALSQSEDGARAPFTQAEMCLPCCSPQQGSLQLSSSEGGASTMAYMHVAEVVSAASAQGTLGMLQQSGRVFMVTDYSPEWSYPEGGVKVLITGPWQEASNNYSCLFDQISVPASLIQPGVLRCYCPAHDTGLVTLQVAFNNQIISNSVVFEYKARALPTLPSSQHDWLSLDDNQFRMSILERLEQMERRMAEMTGSQQHKQASGGGSSGGGSGSGNGGSQAQCASGTGALGSCFESRVVVVCEKMMSRACWAKSKHLIHSKTFRGMTLLHLAAAQGYATLIQTLIKWRTKHADSIDLELEVDPLNVDHFSCTPLMWACALGHLEAAVVLYKWDRRAISIPDSLGRLPLGIARSRGHVKLAECLEHLQRDEQAQLGQNPRIHCPASEEPSTESWMAQWHSEAISSPEIPKGVTVIASTNPELRRPRSEPSNYYSSESHKDYPAPKKHKLNPEYFQTRQEKLLPTALSLEEPNIRKQSPSSKQSVPETLSPSEGVRDFSRELSPPTPETAAFQASGSQPVGKWNSKDLYIGVSTVQVTGNPKGTSVGKEAAPSQVRPREPMSVLMMANREVVNTELGSYRDSAENEECGQPMDDIQVNMMTLAEHIIEATPDRIKQENFVPMESSGLERTDPATISSTMSWLASYLADADCLPSAAQIRSAYNEPLTPSSNTSLSPVGSPVSEIAFEKPNLPSAADWSEFLSASTSEKVENEFAQLTLSDHEQRELYEAARLVQTAFRKYKGRPLREQQEVAAAVIQRCYRKYKQLTWIALKYALYKKMTQAAILIQSKFRSYYEQKKFQQSRRAAVLIQKYYRSYKKCGKRRQARRTAVIVQQKLRSSLLTKKQDQAARKIMRFLRRCRHSPLVDHRLYKRSERIEKGQGT | soluble |
| GLIIGPEEDYDPGYFNNESDIIFQDLEKLKSHPAYLVVFLRYILSQADPGPLLFYLCSEVYQQTNPKDSRSLGKDIWNIFLEKNAPLRVKIPEMLQAEIDLRLRNNEDPRNVLCEAQEAVMLEIQEQINDYRSKRTLGLGSLYGENDLLGLDGDPLRERQMAEKQLAALGDILSKYEEDRSAPMDFAVNTFMSHAGIRLRESR | soluble |
| GMADAPIDIFQSILSRKSIRAFTDQPVTQETIREILKLAARAPSGTNLQPWQVIVLTGKILQKVGQELSQLVLSGIKGEREYHYYPRQWREPYLSRRRKVGLDLYKSLGIQKGDQEKMLHQKAKNFLFYGAPVGLLFTIDHDMEMGSWLDLGMFMQTIMLAARGFGLDTCAQAAFADYHKQIRSLLSVPSDRHIICGMALGYRDMNAPENNFETEREPIDNFVHFIKSYP | soluble |
| GMDPKHGNLFADVPVGAPDEIFQPLLERKGLKIERIISNGQASPPGFWYDSPQDEWVMVVSGSAGIECEGDTAPRVMRPGDWLHVPAHCRHRVAWTDGGEPTVWLAVHCDAA | soluble |
| GMEVNQPDIVAQVQAAFVEYERALVENDIEAMNALFWHTPETVRYGIAEVQHGGEAIRAWRERCEPVPKSRKLHRTVVTTFGTDFATVSTEFTSDATPLLGRQMQTWARLSPADGWKIVAAHVSLIAMP | soluble |
| GMGRILREGAGWRLGWDETAHRYPGLVGTTDWAVELTAAEMADFCRLVQQLAETIAAIAPELMPEERLQIEAESALLWLEAEGFADAYELRLILASDRRVEACWPAAAVPALVAATHTLKGF | soluble |
| GMIYSKVENFINENKQNAIFTEGASHENIGRIEENLQCDLPNSYKWFLEKYGAGGLFGVLVLGYNFDHASVVNRTNEYKEHYGLTDGLVVIEDVDYFAYCLDTNKMKDGECPVVEWDRVIGYQDTVADSFIEFFYNKIQEAKDDWDEDEDWDD | soluble |
| GMLESTKQFLKKYNINDRVLKLYETAMNDIQNQFKILDDIREFNQLKVLNAFQEERISEAHFTNSSGYGYGDIGRDSLDAVYARVFNTESALVRPHFVNGTHALGAALFGNLRPGNTMLSVCGEPYDTLHDVIGITENSNMGSLKEFGINYKQVDLKEDGKPNLEEIEKVLKEDESITLVHIQRSTGYGWRRALLIEDIKSIVDCVKNIRKDIICFVDNCYGEFMDTKEPTDVGADLIAGSLIKNIGGGIAPTGGYLAGTKDCIEKTSYRLTVPGIGGECGSTFGVVRSMYQGLFLAPHISMEALKGAILCSRIMELAGFEVMPKYDEKRSDIIQSIKFNDKDKLIEFCKGIQTGSPIDSFVSCEPWDMPGYTDQVIMAAGAFIQGSSIELSADAPIREPYIAYLQGGLTFDHAKIGILIALSRIVK | soluble |
| GMNPENWLLLRRVVRFGDTDAAGVMHFHQLFRWCHESWEESLESYGLNPADIFPGSRKSEVTPEVALPIIHCQADFRRPIHTGDALAMELRPERLNPNSFQVHFEFRCEEQIAAHALIRHLAINAQTRHRCALPEGIDRWLEASGVGKIGSI | soluble |
| GMNQSIIFTEQLTWDVQLSAIHFTAQQQGMVIDCYIGQKVLEHLAAEKINNSEQALSLFEQFRFDIEEQAEKLIEQEAFDVQGHIQVERVD | soluble |
| GMPENTAMAALLPEESLFFRELVKQWRAQDSYGTWEKKSDMELLAPYVLDKEQRRAIPIIGDPDPEILWRVELFYNAVGLATERASGVMVSPMMKMSHEGFGRMVLIAGRLIVVNKQLRDVHRFGFPSMEKLAEEGDKLVAGALEMIEKFPEVARF | soluble |
| GMPIIIDKDLPARKVLQEENIFVMTKERAETQDIRALKIAILNLMPTKQETEAQLLRLIGNTPLQLDVHLLHMESHLSRNVAQEHLTSFYKTFRDIENEKFDGLIITGAPVETLSFEEVDYWEELKRIMEYSKTNVTSTLHICWGAQAGLYHHYGVQKYPLKEKMFGVFEHEVREQHVKLLQGFDELFFAPHSRHTEVRESDIREVKELTLLANSEEAGVHLVIGQEGRQVFALGHSEYSCDTLKQEYERDRDKGLNIDVPKNYFKHDNPNEKPLVRWRSHGNLLFSNWLNYYVYQETPYVL | soluble |
